Experiments:
[1] = target: T1, RSV F protein of subtype A comprising a polypeptide of SEQ ID NO: 1 and a polypeptide of SEQ ID NO: 2 (RSV subtype A, UniProt P11209 137-513; P03420 26-109); assay: AM14 ELISA; F7 (pH 6, 100 mM NaCl, 0% sucrose); 2 wk 25°C
T1 construct: Stabilized prefusion F trimer made of three F2-F1 heterodimers; Produced recombinantly in CHO cells; also called RSV A; RSVA
T1 chain 1: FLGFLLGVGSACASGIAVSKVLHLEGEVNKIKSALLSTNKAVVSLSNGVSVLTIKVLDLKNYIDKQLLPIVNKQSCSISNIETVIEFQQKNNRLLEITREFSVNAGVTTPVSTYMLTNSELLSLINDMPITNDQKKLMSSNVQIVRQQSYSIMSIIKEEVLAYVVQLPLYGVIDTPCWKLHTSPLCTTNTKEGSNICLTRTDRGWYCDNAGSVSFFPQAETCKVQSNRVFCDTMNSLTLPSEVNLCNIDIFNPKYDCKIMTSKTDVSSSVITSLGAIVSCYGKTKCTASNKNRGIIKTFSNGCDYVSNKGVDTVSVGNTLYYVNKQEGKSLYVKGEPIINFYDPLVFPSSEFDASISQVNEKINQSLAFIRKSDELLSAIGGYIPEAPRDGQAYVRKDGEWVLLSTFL
T1 chain 2: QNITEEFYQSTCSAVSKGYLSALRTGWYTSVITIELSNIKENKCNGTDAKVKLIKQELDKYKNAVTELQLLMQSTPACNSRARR

[2] = target: T1, RSV F protein of subtype A comprising a …; assay: AM14 ELISA; F5 (pH 6, 100 mM NaCl, 9.0% sucrose); 2 wk 5°C
[3] = target: T1, RSV F protein of subtype A comprising a …; assay: AM14 ELISA; F18 (pH 7, 50 mM NaCl, 3% sucrose + 3% mannitol); 1 wk 25°C

B1: AM14 (trimeric prefusion specific antibody of the AM14 ELISA) (antibody, V domains shown)
VH: EVQLVESGGGVVQPGRSLRLSCAASGFSFSHYAMHWVRQAPGKGLEWVAVISYDGENTYYADSVKGRFSISRDNSKNTVSLQMNSLRPEDTALYYCARDRIVDDYYYYGMDVWGQGATVTVSS
VL: DIQMTQSPSSLSASVGDRVTITCQASQDIKKYLNWYHQKPGKVPELLMHDASNLETGVPSRFSGRGSGTDFTLTISSLQPEDIGTYYCQQYDNLPPLTFGGGTKVEIKR
notes: Antibody as used in the AM14 ELISA, detected with an HRP-labeled secondary antibody
For B1, the “AM14 prefusion content (%), relative to standard” value [1] was 55%, the “AM14 prefusion content (%), relative to standard” value [2] was 76% and the “AM14 prefusion content (%), relative to standard” value [3] was 83%.

Reference: patent publication US20260097113A1 (Pfizer, published 2026)
